Results reported in IntAct's records for PubMed 21600204.

B1: Hemolysin expression-modulating protein Hha (Escherichia coli (strain K12)), P0ACE3 (parent)
chain: MSEKPLTKTDYLMRLRRCQTIDTLERVIEKNKYELSDNELAVFYSAADHRLAELTMNKLYDKIPSSVWKFIR
partner: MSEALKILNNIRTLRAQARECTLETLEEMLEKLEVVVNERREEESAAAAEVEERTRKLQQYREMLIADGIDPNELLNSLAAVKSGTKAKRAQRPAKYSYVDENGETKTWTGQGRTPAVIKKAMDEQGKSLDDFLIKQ
B2: OriC-binding nucleoid-associated protein (Escherichia coli (strain K12)), P64467 (parent)
chain: MTVQDYLLKFRKISSLESLEKLYDHLNYTLTDDQELINMYRAADHRRAELVSGGRLFDLGQVPKSVWHYVQ
partner: B1 partner

Variants of: B1
Conditions: with hns_ecoli hns

Variant | effect of a mutation on the interaction
E25Q | decreasing interaction

Variants of: B1
Conditions: with hns_ecoli hns
Remark: another data set of the same source

Variant | effect of a mutation on the interaction
D48N | disrupting interaction

Variants of: B2
Conditions: with hns_ecoli hns

Variant | effect of a mutation on the interaction
D44N | disrupting interaction
